Here are results for 42 variants from the RNAGym collection of RNA variant scans (doi:10.1073/pnas.2313332121).

First the molecules themselves.
B1: TPR t1 (parent)
chain: GACCAAUCUGCCCUCAGAGCUCGAGAACAUCUUCGGAUGCAGAGGAGGCAGGCUUCGGUGGCGCGAUAGCGCCAACGUCCUCAACCUCCAAUGCAUCCCACCACAUGAUGAUGCCUGAAGAGCCUUGGUUUUUUG

The variants in the series derive from B1. The series is described as follows: polymerase ribozyme fitness, log enrichment relative to wild type (log ratio); higher = more active; in vitro selection for triplet polymerase activity. The essentials:
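Only genotypes with ≥10 input reads and ≥1 read per output were kept after Illumina sequencing of input and output libraries. These libraries were PCR-built, transcribed mutants of each subunit of a heterodimeric triplet polymerase ribozyme, each put through one triplicate in vitro selection round with frozen incubation at −7 °C, gel excision of extended constructs, streptavidin-bead capture and RT-PCR. Fitness is a logarithmic ratio of genotype enrichment to wild-type enrichment, from inverse-variance-weighted replicate averages, with the logarithm in base 2.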
Consider GACCAAUCUGCUCUCAUAGCUCGAGAACAUCUUCGGAUGCAGAGGAGGCAGGCUUCGGUGGCGCGAUAGCGCCAACGUCCUCAACCUCCAAUGCAUCCCACCACAUGAUGAUGCCUGAAGAGCCUUGGUUUUUUG, for which the “polymerase ribozyme fitness (log ratio)” value is -0.854. As for GACCAAUCUGCUCUCAGAGCUCGAGAACAUCUUCGGAUGCAGAGGAGGCAGGCUUCGGUGGGGCGAUAGCGCCAACGUCCUCAACCUCCAAUGCAUCCCACCACAUGAUGAUGCCUGAAGAGCCUUGGUUUUUUG, the figure is -1.57; as for GACCAAUCUGCUCUCAGAGCUCGAGAACAUCUUCGGAUGCAGAGGAGGCAGGCUUCGGUGGCGCGAUAGCGCUAACGUCCGGAACCUCCAAUGCAUCCCACCACAUGAUGAUGCCUGAAGAGACUUGGUUUUUUG, 0.809; as for GACCAAUCUGCUCUCAGAGCUCGAGAACAUCUUCGGAUGCAGAGGAGGCAGGCUUCGGUGGCGCGAUAGAGCCAACGUCCUCAACCUGCAAUGCAUCCCACCACAUGAUGAUGCCUGAAGAGCCUUGGCUUUUUG, -2.57. Regarding GACCAAUCUGCUCUCAGAGCUCGAGAACAUCUUCGGAUGCAGAGGAGGCAGGCUUCGGUGGCGCGAUAGCGCCAACGUCUUCAACCUCUAAUGCAUCCUACCACAUGAUGAUGCCUGAAAAGCCUUGGUUUUUUG, the “polymerase ribozyme fitness (log ratio)” value is -2.97. For GACCAAUCUGCUCUCAGAGCUCGAGAACAUCUUCGGAUGCAGAGGAGGCAGGCUUCGGUGGCGCGAUAGCGUCAACGUCCUCAACCUCCAAUGCAUCCCACCACAUGAUGAUGCCUGAAGAGCCUUGUUUUUUUG, the “polymerase ribozyme fitness (log ratio)” value was -1.55. As for GACCAAUCUGCUCUCAGAGCUCGAGAACAUCUUCGGAUGCAGAGGAGGCAGGCUUCGGUGGCGCGAUAGCGCCAACGUCCUCAACAUCCAAUGCAUCCCACCACAUGAUGAUGCCUGAAGAGCCUUGGUUUUUUG, the figure is 0.101.

Take GACCAAUCUGCUCUCAGAGCUCGAGAACAUCUUCGGAUGCAGAGGAGGCAGGCUUCGGUGGCGCGAUAGCGGCAACGUCCUCAACCUCCAAUGCAUCCCACAACAUGAUGAUGCCUGAAGAGCCUUGGUUUUUUG: the “polymerase ribozyme fitness (log ratio)” value is -2.37. Regarding GACCAAUCUGCUCUCAGAACUCGAGAACAUCUUCGGAUGCAGAGGAGGCAGGCUUGGGUGGCGCGAUAGCGCCAACGUCCUCAACCUCCAAUGCAUCCCACCACAUGAUGAUGCCUGAAGAGCCUUGGUCUUUUG, the “polymerase ribozyme fitness (log ratio)” value was -2.66. As for GACCAAUCUGCUCUCAGAGCUCGAGAACAUCUUCGGAUGCAGAGGAGGCAGGCUUCGGUGGCGCGAUAGCGCCAACGUCCUCAACCUCCAAUGCAUCCCACAACAUGAUGAUGCCUGAAGAGCUUUGGUUUUUUG, the figure is 0.00391. Turning to GACCAAUCUGCUCUCAGAGCUCGAGAACAUCUUCGGAUCCAGAGUAGGCAGGCUUCGGUGGCGCGAUAGCGCCAACGUCCUCAACCUCCAAUGCAUCCCUCCACAUGAUGAUGCCUGAAGAGCCUUGGUUGUUUG, the “polymerase ribozyme fitness (log ratio)” value is -3. For GACCAAUCUGCUCUCAGAGCUCGAGAACAUCUUCGGAUGCAGAGGAGGCAGGCUUCGGUGGCGCGAUAGCGCCAACGUCCUCAACCUCUAAUGCAUCCCACCACAUGAUGAUGCCUGAAGAGCCUUGGUUUUUUG, the “polymerase ribozyme fitness (log ratio)” value was 0.399.

With GACCAAUCUGCUCUCAGAGCUCGAGAACAUCUUCGGAUGCAGAGGAGGCAGGUUUUGGUGGCGCGAUAGCGCCAACGUCCUCAACCUCCAAUGCAUCCCACCACAUGAUGAUGCCUGAAGAGCCUUGGUUUUUUG, the “polymerase ribozyme fitness (log ratio)” value is -0.154. Turning to GACCAAUCUGCUCUCAGAGCUCGAGAACAUCUUCGGAUGCACAGGAGGCAGGAUUCGGUGGCGCGAUAGCUCCAACGUCCUCAACCUGCAAUGCAUCCCACCACAUGAUGAUGCCUGAAGAGCCUUGAUUUUUUU, the “polymerase ribozyme fitness (log ratio)” value is -6.24. As for GACCAAUCUGCUCUCAGAGCUCGAGAACAUCUUCGGAUGCACAGGAGGCAGGCUUCGGUGGCGCGAUAGCGUCAACGUCCUCAACCUCCAAUGCAUCCCACCACAUGAUGAUGCCUGAAGAGCCUUGGUUUUUUG, the figure is -1.28; as for GACCAAUCUGCUCUCAGAGCUCGAGAACAUCUUCGGAUGCAGAGGAGGCAGGCUUCGGUGGCGCGAUAGCGCAAACGUCCUCAACCUCCAAUGCAUGCCACCAUAUGAUGAUGCCUGAAGAGCCUUGGUUUUUUG, -2.89.

With GACCAAUCUGCUCUCAGAGCUCGAGAACAUCUUCGGAUUCAGAGGAGGCAGGCUACGGUGGCGCGAUAGCACCAACGUCCUCAACCUCCAAUGGAUCCCACAACAUGAUGAUUCCUGAAGAGCCUUGGUUUUUUG, the “polymerase ribozyme fitness (log ratio)” value is -6.81. Next, GACCAAUCUGCUCUCAGAGCUCGAGAACAUCUUCGGAUGCAGAGGAGGCAGGCUUAGGUGGCGCGAUAGCGCCAACGUCCUCAACCUCCAAUGCAUCCCACCACAUGAUGAUGCCUGAAGAGCCUUGGUUUUUUG: -0.454.

Consider GACCAAUCUGCUCUCAGAGCUCGAGAACAUCUUCGGAUGCAGAGGAGGCAGGCUUGGGUGGCGCGAUAGCGCCAACGUCCUCAACCUCCAAUGCAUCCCACCACAUGAUGAUGCCUGAAGAGCCUUGGUUUUUUG, for which the “polymerase ribozyme fitness (log ratio)” value is -0.12.

Regarding GACCAAUCUGCUCUCAGAGCUCGAGAACAUCUUCGGAUGCAGAGGAGGCAGGCUUCGGUGGCGCGAUAGCGCCAACGUGCUCAACCUCAAAUGCAUCCCACCACAUGAUGAUGCCUGAAGCGCCUUGGUUUUUUG, the “polymerase ribozyme fitness (log ratio)” value is -3.82. As for GACCAAUCUGCUCUCAGAGCUCGAGAACAUCUUCGGAUGCAGAGGAGGCAGGCUUCGGUGGCGCGAUAGCGGCAACGUCCUCAACCUCCAAUGCAUCCCACCACAUGAUGAUGCCUCAUGAGCCUUGGUUUUUUG, the figure is -1; as for GACCAAUCUGCUCUCAGAGCUCGAGAACAUCUUCGGAUGCAGAGGAGGCAGGCUUCGGUGGCGCGAUAGCGCCAACGUGCUCAACCUCCAAUGCAUCCCAUCACAUGAUGAUGCCUGAAAAGCCUUGGUUUUUUG, 0.377. GACCAAUCUGCUCUCAGAUCUCGAGAACAUCUUCGGAUGCAGAGGAGGCAGGCUUCGGUGGCGCGAUAGCGCCAACGUCCUCAACCUCCAAUGCAUCCCACCACAUGAUGAUGCCUGAAGAGCCUUGGUUUUUUG: the “polymerase ribozyme fitness (log ratio)” value is -2.49.

For the variant GACCAAUCUGCUCUCAGAGCUCGAGAACAUCUUCGGAUGCAGAGGAGGCAGGCUUCGGUGGCGCGAUAGCGUCAACGUCCUCAACCUCCAAUGCAACCCACCACAUGAUGAUGCUUGAAGAGCCUUGGUUUUUUG, the “polymerase ribozyme fitness (log ratio)” value was -1.92.

Take GACCAAUCUGCUCUCAGAGCUCGAGAACAUCUUCGUAUGCAGAGGAUGCAGGCUUCGGUGGCGCGAUAGCGCCAACGUCCUCAACCUCCAAUGCAUCCCACCACAGGAUGAUGCCUGAAGAGCCUUGGUUUUUUG: the “polymerase ribozyme fitness (log ratio)” value was -5.66. As to GACCAAUCUGCUCUCAGAGCUCGAGAACAUCUUCGGAUGCAGAGGAGGCAGGCUUCGGUGGCGCGAUAGCGCCAACGUACUCAACCUCCAAUGCAUCCCACCACAUGAUGAUGCCUGAAGAGCCUUGGUUUUUUG, the “polymerase ribozyme fitness (log ratio)” value is -0.645. As for GACCAAUCUGCUCUCAGAGCUCGAGAACAUCUUCGGAUGCAGAGGAGGCAGGCUUCGGUGGCGCGAUAGCGCCAACGUGCUCAACCUCCAAUGCAUCCCACCACAUGAUGAUGCCUGAAGAGCCUUGGUUUUUUG, the figure is -1.07; as for GACCAAUCUGCUCUCAGAGCUCGAGAACAUCUUCGGAUGCAGAGGAGGCAGGCUUCGGUGGCGCGAUAGCGCCAACGUCCUCAACCUCCAAUGCAUCCCACCACAUGAUGAUGCCUGAAGAGACUUGGUUUUUUG, 2.11; as for GACCAAUCUGCUCUCAGAGCUCGAGAACAUCUUCGGAUGCAAAGGAGGCAGGCUUCGGUGGCGCGAUAGCGCCAACGUCCUCAACCUCCAAUGCUUCCCACCACAUGAUGAUGCCUGAAGAGCCUUGGUUUUUUG, -1.64. For GACCAAUCUGCUCUCAGAGCUCGAGAACAUCUUCGGAUGCAGAGGAGGCAGGCUUCGGUGGCGCGAUAGCGUCAACGUCCUCAACCUCCAAUGCAUCCCCCCACAUGAUGAUUCCUGAAGAGCCUUAGUUUUUUG, the “polymerase ribozyme fitness (log ratio)” value is -3.91.

As to GACCAAUCUGCUCUCAGAGCUCGAGAACAUCUUCAGAUGCAUAGGAGGCAGGCUUCGGUGGCGCGAUAGCGCCAACGUCCUCAACCUCCAAUGCAUCCCACCACAUGAUGACGCCUGAAGAGCCUUGGUUUUUUG, the “polymerase ribozyme fitness (log ratio)” value was -5.14. Consider GACCAAUCUGCUCUCACAGCUCGAGAACAUCUUCGGAUGCAGAGGAGGUAGGCUUCGGUGGCGCGAUAGCGCCAACGUCCUGAACCUCCAAUGUAUCCGACCACAUGAUGAUGCCUGAAGAGACUUGGUUUUUUG, for which the “polymerase ribozyme fitness (log ratio)” value is -7.59. As for GACCAAUCUGCUCUCAGAGCUCGAGAACAUCUUCGGAUGCAGAGGAGGCAGGCUUCGGUGGCGCGAUAGCGCCAACGUCCUCAACCUCCAAUGCAUCCCACCACAUGAUGAUGCCUGAAGAGCAUUGGUUUUUUG, the figure is 1.8; as for GACCAAUCUGCUCUCAGAGCUCGAGAACAUCUUCGGAUGCAGAGGAGGCAGGCUUCGGUGGCGCGAUAGCGCCAACGUCCUCAACCUCCAAUGCAUCCCACAACAUGAUGAUGCCUGAAGAGCCUUGGUUUUUUG, -1.07. As for GACCAAUCUGCUCUCAGAGCUCGAGAACAUCUUCGGAUGCAGAGGAGGCAGGCUUCGGUGGCGCGAUAGCGCCAACGUCCUCAACCUCCAAUGCAUCCCAUCACAUGAUGAUGCCUGAAGAGCCUUGGUUUUUUG, the figure is -0.102; as for GACCAAUCUGCUCUCAGAGCUCGAGAACAUCUUCGGAUGCAGAGGAGGCAGGCUUCGGUGGGGCGAUAGCGCCAACGUCCUCAACCUCCAAUGCAUCCCACCACAUGAUGAUGCCUGAAGAGCCUAGGUUUUUUG, -2.76; as for GACCAAUCUGCUCUCAGAGCUCGAGAACAUCUUCGGAUGCAGAGGAGGCAGGCUUAGGUGGCGCGAUAGCGCCAACGUCCUCAACCUCCAAGGCAUCCCAGCACAUGAUGAUGCCUGAAGGGCCUUGGUUUUUUG, -3.35. Next, GACCAAUCUGCUCUCAGAGCUCGAGAACAUCUUCGGAUGCAGAGGAGGCAGGGUUCGGUGGCGCGAUAGCGCCAACGUCCUCAACCUCCAAUGCAUCCCACCACAUGAUGAUGCCUGAAGAGCCUUGGUUUUUUG: -0.45; GACCAAUCUGCUCUCAGAGCUCGAGAACAUCUUCGGAUGCAGAGGAGGCAGGCUUCGGUGGUGCGAUAGCGCCAACGUCGUCAACCUCCAAUGCAUCCCACCACAUGAGGAUGACUGAAGAGCCUUGGUUUUUUG: -6.17; GACCAAUCUGCUCUCAGAGCUCGAGAACAUCUUCGGAUGCAGAGGAGGCAGGCUUCGGUGGCGCGAUAGCGGCAACGUCCUCAACCUCCAAUGCAUCCCACCACAUGAUGACGCCUGAAGAGCCUUGGUUUUUUG: 1.25. GACCAAUCUGCUCUCAGAGCUCGAGAACAUCUUCGGAUGCAGAGGAGGCAGGCUUCGGUGGCGCGAUAGCGCCAACGUCCUCAACCUCCAAUGCAUCGCACCACAUGAUGAUGCCUGAAGAGCCUUGGUUUUUUG: the “polymerase ribozyme fitness (log ratio)” value was -4.85.

Regarding GACCAAUCUGCUCUCAGAGCUCGAGAACAUCUUCGGAUGCAGAGGAGGCAGGCUUCGGUGGCGCGAUAGCGCCAACGUCCUCAACCUCCAAUGCAUCUCACCACAUGAUGAUGCCUGAAGAGCCUUGGUUUUUUG, the “polymerase ribozyme fitness (log ratio)” value is -0.736.
